This is an account of results in patent US20250313602A1 (published 2025).

Test [1] addresses T1, human IL-2Rβ protein (10696-H05H, Sino Biological) (human, UniProt P14784 27-239).
T1 chain: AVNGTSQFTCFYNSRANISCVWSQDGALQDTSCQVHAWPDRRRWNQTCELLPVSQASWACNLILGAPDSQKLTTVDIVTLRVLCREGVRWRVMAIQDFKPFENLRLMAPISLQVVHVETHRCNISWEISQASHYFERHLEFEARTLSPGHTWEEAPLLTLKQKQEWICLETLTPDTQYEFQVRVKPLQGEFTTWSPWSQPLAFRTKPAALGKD
The test can be described thus: ELISA.

In test [2] the target is T2, human IL-2Rα protein (10165-H08H, Sino Biological) (human, UniProt P01589 22-213).
T2 chain: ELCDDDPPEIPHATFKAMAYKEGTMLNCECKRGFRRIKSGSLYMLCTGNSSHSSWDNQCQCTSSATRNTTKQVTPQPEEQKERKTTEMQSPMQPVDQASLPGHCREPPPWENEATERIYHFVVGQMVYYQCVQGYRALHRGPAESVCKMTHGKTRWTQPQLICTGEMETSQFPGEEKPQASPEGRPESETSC
Kind of test: ELISA.

B1: IL-2-Fc fusion protein (Fc fusion)
chain: APTSSSTKKTQLQLEHLLLDLQMILNGINNYKNPKLTAMLTFKFYMPKKATELKHLQCLEEELKPLEEVLNLAQSKNFHFDPRDVVSNINVFVLELKGSETTFMCEYADETATIVEFLNRWITFCQSIISTLTGGGGSGGGGSGGGGSEPKSCDKTHTCPPCPAPEAAGGPSVFLFPPKPKDTLYITREPEVTCVVVDVSHEDPEVKFNWYVDGVEVHNAKTKPREEQYNSTYRVVSVLTVLHQDWLNGKEYKCKVSNKALPAPIEKTISKAKGQPREPQVYTLPPSREEMTKNQVSLTCLVKGFYPSDIAVEWESNGQPENNYKTTPPVLDSDGSFFLYSKLTVDKSRWQQGNVFSCSVMHEALHNHYTQKSLSLSPK
A word on the EC50: it is the concentration needed to bring the measured effect to its halfway point. As to B1, the results for the EC50 in test [1] and in test [2] were 94 nM and 3.06 nM, respectively.
